From the supplement of paper PMC11246515
± gives the standard deviation of the averaged measurements.

Test: total protein half-life in vivo (active degradation + dilution); higher = more stable protein
[1] = E. coli NCM3722 delta-clpP delta-lon delta-hslV, growth: N-lim chemostat, doubling time 6 h
[2] = E. coli NCM3722 delta-clpP, growth: N-lim chemostat, doubling time 6 h
[3] = E. coli NCM3722 delta-hslV, growth: N-lim chemostat, doubling time 6 h
[4] = E. coli NCM3722 delta-smpB, growth: N-lim chemostat, doubling time 6 h
[5] = wild type E. coli NCM3722, growth: C-lim chemostat, doubling time 3 h
[6] = wild type E. coli NCM3722, growth: C-lim chemostat, doubling time 6 h
[7] = wild type E. coli NCM3722, growth: C-lim chemostat, doubling time 12 h
[8] = wild type E. coli NCM3722, growth: N-lim chemostat, doubling time 12 h
[9] = wild type E. coli NCM3722, growth: P-lim chemostat, doubling time 6 h
[10] = wild type E. coli NCM3722, growth: P-lim chemostat, doubling time 12 h
[11] = E. coli NCM3722 delta-lon, growth: N-lim chemostat, doubling time 6 h
[12] = wild type E. coli NCM3722, growth: N-lim chemostat, doubling time 6 h

Sequence	total protein half-life in vivo [1]	total protein half-life in vivo [2]	total protein half-life in vivo [3]	total protein half-life in vivo [4]	total protein half-life in vivo [5]	total protein half-life in vivo [6]	total protein half-life in vivo [7]	total protein half-life in vivo [8]	total protein half-life in vivo [9]	total protein half-life in vivo [10]	total protein half-life in vivo [11]	total protein half-life in vivo [12]
MSILTRWLLIPPVNARLIGRYRDYRRHGASAFSATLGCFWMILAWIFIPLEHPRWQRIRAEHKNLYPHINASRPRPLDPVRYLIQTCWLLIGASRKETPKPRRRAFSGLQNIRGRYHQWMNELPERVSHKTQHLDEKKELGHLSAGARRLILGIIVTFSLILALICVTQPFNPLAQFIFLMLLWGVALIVRRMPGRFSALMLIVLSLTVSCRYIWWRYTSTLNWDDPVSLVCGLILLFAETYAWIVLVLGYFQVVWPLNRQPVPLPKDMSLWPSVDIFVPTYNEDLNVVKNTIYASLGIDWPKDKLNIWILDDGGREEFRQFAQNVGVKYIARTTHEHAKAGNINNALKYAKGEFVSIFDCDHVPTRSFLQMTMGWFLKEKQLAMMQTPHHFFSPDPFERNLGRFRKTPNEGTLFYGLVQDGNDMWDATFFCGSCAVIRRKPLDEIGGIAVETVTEDAHTSLRLHRRGYTSAYMRIPQAAGLATESLSAHIGQRIRWARGMVQIFRLDNPLTGKGLKFAQRLCYVNAMFHFLSGIPRLIFLTAPLAFLLLHAYIIYAPALMIALFVLPHMIHASLTNSKIQGKYRHSFWSEIYETVLAWYIAPPTLVALINPHKGKFNVTAKGGLVEEEYVDWVISRPYIFLVLLNLVGVAVGIWRYFYGPPTEMLTVVVSMVWVFYNLIVLGGAVAVSVESKQVRRSHRVEMTMPAAIAREDGHLFSCTVQDFSDGGLGIKINGQAQILEGQKVNLLLKRGQQEYVFPTQVARVMGNEVGLKLMPLTTQQHIDFVQCTFARADTWALWQDSYPEDKPLESLLDILKLGFRGYRHLAEFAPSSVKGIFRVLTSLVSWVVSFIPRRPERSETAQPSDQALAQQ	3.59 h	3.59 ± 0.068 h	3.23 ± 0.15 h	3.25 ± 0.049 h	2.31 ± 0.24 h	3.01 ± 0.81 h	4.36 h	8.41 h	3.59 ± 0.75 h	6.3 ± 0.43 h		
MSIRIIPQDELGSSEKRTADMIPPLLFPRLKNLYNRRAERLRELAENNPLGDYLRFAALIAHAQEVVLYDHPLEMDLTARIKEASAQGKPPLDIHVLPRDKHWQKLLMALIAELKPEMSGPALAVIENLEKASTQELEDMASALFASDFSSVSSDKAPFIWAALSLYWAQMANLIPGKARAEYGEQRQYCPVCGSMPVSSMVQIGTTQGLRYLHCNLCETEWHVVRVKCSNCEQSGKLHYWSLDDEQAAIKAESCDDCDTYLKILYQEKDPKIEAVADDLASLVLDARMEQEGYARSSINPFLFPGEGE		4.49 ± 0.13 h	3.54 ± 0.26 h	2.78 ± 0.7 h	1.81 ± 0.24 h	3.48 ± 0.15 h	6.07 ± 2.6 h	4.72 ± 0.75 h	4.06 ± 0.14 h	7.84 ± 0.28 h	4.36 ± 1.1 h	3.56 ± 0.28 h
MSIVMQLQDVAESTRLGPLSGEVRAGEILHLVGPNGAGKSTLLARMAGMTSGKGSIQFAGQPLEAWSATKLALHRAYLSQQQTPPFATPVWHYLTLHQHDKTRTELLNDVAGALALDDKLGRSTNQLSGGEWQRVRLAAVVLQITPQANPAGQLLLLDEPMNSLDVAQQSALDKILSALCQQGLAIVMSSHDLNHTLRHAHRAWLLKGGKMLASGRREEVLTPPNLAQAYGMNFRRLDIEGHRMLISTI	4.65 ± 0.84 h	2.32 ± 0.27 h	3.72 h	2.37 ± 0.03 h	2.13 ± 0.1 h	3.49 ± 0.41 h	4.65 h		4.37 h	6.509 ± 0.027 h	2.59 h	3.11 ± 0.33 h
MSKAGASLATCYGPVSADVIAKAENIRLLILDVDGVLSDGLIYMGNNGEELKAFNVRDGYGIRCALTSDIEVAIITGRKAKLVEDRCATLGITHLYQGQSNKLIAFSDLLEKLAIAPENVAYVGDDLIDWPVMEKVGLSVAVADAHPLLIPRADYVTRIAGGRGAVREVCDLLLLAQGKLDEAKGQSI [P0ABZ4]	6.03 ± 0.62 h	5.24 ± 0.48 h	4.75 h	4.36 ± 0.21 h		4.33 ± 1.4 h	11.2 ± 2 h	7.52 ± 0.99 h	6.58 h	13.2 ± 0.32 h	4.98 ± 0.53 h	4.81 h
MSKCSADETPVCCCMDVGTIMDNSDCTASYSRVFANRAEAEQTLAALTEKARSVESEPCKITPTFTEESDGVRLDIDFTFACEAEMLIFQLGLR [P0AD33]	5.299 ± 0.023 h		2.32 ± 0.13 h	2.37 ± 0.099 h	2.3 ± 0.11 h	4.14 ± 0.23 h	8.27 ± 4.1 h	3.61 ± 0.46 h	5.25 ± 0.11 h	8.88 ± 0.45 h	2.77 ± 0.89 h	2.09 ± 0.35 h
